The values that follow come from patent US7223730.

Series [1] concerns azocasein.
For series [2], the system named is fibrin.
In series [3] the target is human fibrinogen (UniProt P02671).

Where “and” joins values, the source holds several entries; their conditions need not be identical. Equal values may be shown once.

As to “antithrombosis enzyme purified from the snake venom of Southern-Anhui Agkistrodon acutus”, the “proteolytic activity (azocasein hydrolysis, absorbance at 390 nm)” value in series [1] was “No proteolytic activity was detected in this assay”. The fibrinolytic activity in series [2] is reported as 1 fibrinolytic activity unit per mg protein. In addition, in series [2] (scale: fibrinolytic activity units per mg of enzyme), the fibrinolytic activity (fibrin-plate-clearance assay) was 1 and 3. Further, the fibrinogen cleavage entry in series [3] was “One fibrinogen cleavage site was found to be Met 235-Pro236 of the α chain of human fibrinogen”.
